The source of these data is patent publication US20160208004A1 (published 2016).

Substitutions are numbered along the chain they refer to.

T1: IL-17RB.Fc (extracellular domain of human IL-17RB fused to the Fc region of human IgG) (human, UniProt Q9NRM6 18-292)
T1 construct: extracellular domain; also called HuIL-17RB: Fc; IL-17RB Fe; not shown: Fc region of human IgG1
T1 sequence (looked up): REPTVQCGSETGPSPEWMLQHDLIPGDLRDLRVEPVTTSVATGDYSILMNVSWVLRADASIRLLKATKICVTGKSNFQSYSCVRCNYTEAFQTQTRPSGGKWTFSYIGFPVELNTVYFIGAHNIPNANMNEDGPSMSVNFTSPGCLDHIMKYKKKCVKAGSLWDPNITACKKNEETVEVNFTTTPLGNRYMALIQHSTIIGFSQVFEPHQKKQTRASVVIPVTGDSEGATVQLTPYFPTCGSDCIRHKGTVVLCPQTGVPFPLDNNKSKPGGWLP

B1: 3.1545.1 (antibody, V domains shown)
VH: EVQLVESGGGSVQPGGSLRLSCAASGFTFSSYSMNWVRQAPGKGLEWVSIISSRSSIIHYADSVKGRFTISRDNAKNSLYLQMNSLRDEDTAVYYCARPKVGGGMDVWGQGTTVTVSS
VL: DIQMTQSPSSLSASVGDRVTITCRASQGISNYLAWYQQKPGKFPELLIYAASTLQSGVPSRFSGSGSGTDFTLTISSLQPEDVATYYCQKYNRAPFTFGPGTKVDIK
B2: 4.357.1 (antibody, V domains shown)
VH: QVQLVQSGAEVKKPGASVKVSCKASGYTLTSYGISWVRQAPGQGLEWMGWISTYKGNTNYAQKLQGRVTMTTDTSTSTAYMELRSLRSDDTAVYYCARKQLVFDYWGQGTLVTVSS
VL: EIVMTQSPATLSVSPGERATLSCRASQSISSSLAWYQQKPGQAPRLLIYGASTRATGIPARFSGSGSGTEFTLTISSLQSENFAVYYCQQYDNWPLTFGGGTKVEIK
B3: 4.393.1 (antibody, V domains shown)
VH: B2 VH with L29F, T53A, K55N, N59K, A79V
VL: B2 VL with S31T, A51T, N82D, Y87F, N93I
B4: 2.67.1 (antibody, V domains shown)
VH: QVQLVQSGAEVKKPGASVKVSCKASGYTLTRYGISWVRQAPGQGLEWMGWISAYNGNTNYAQKLQGRVTMTTDTSTSTAYMELRSLRSDDTAVYYCARRDYDILTGYYNGFDPWGQGTLVTVSS
VL: DIQMTQSPSSLSASVGDRVTITCRASQGIRNDLGWYQQKPGKAPKRLIYAASSLQSGVPSRFSGSGSGTEFTLTISSLQPEDFATYYCLQHKSYPLTFGGGTKVEIK
B5: 2.98.1 (antibody, V domains shown)
VH: B4 VH
VL: B4 VL
B6: 2.225.1 (antibody, V domains shown)
VH: B4 VH with A9V
VL: B4 VL
B7: 2.46.1 (antibody, V domains shown)
VH: B4 VH with Y27N, L29F, R31G, K63N
VL: B4 VL
B8: 1.185.1 (antibody, V domains shown)
VH: QVQLVESGGGVVQPGRSLRLSCAASGINFSSYGMHWVRQAPGKGLEWVAVIWYDGSNKHYADSVKGRFTISRDNSKNTLYLQMNSLRAEDTAVYYCARDTGVYWGQGTLVTVSS
VL: not shown
B9: Human IL-17RD.HIS (receptor, UniProt Q8NFM7 27-299, looked up)
chain: AGGSGRARGADTCGWRGVGPASRNSGLYNITFKYDNCTTYLNPVGKHVIADAQNITISQYACHDQVAVTILWSPGALGIEFLKGFRVILEELKSEGRQCQQLILKDPKQLNSSFKRTGMESQPFLNMKFETDYFVKVVPFPSIKNESNYHPFFFRTRACDLLLQPDNLACKPFWKPRNLNISQHGSDMQVSFDHAPHNFGFRFFYLHYKLKHEGPFKRKTCKQEQTTETTSCLLQNVSPGDYIIELVDDTNTTRKVMHYALKPVHSPWAGPIR
notes: R&D Systems product; not shown: HIS tag

One experiment concerns the target human IL-17RA (human, UniProt Q96F46 33-866). Briefly: cell-based or functional assay.
For B1, the “% Inhib. of IL-5 production, TSLP treated human PBMC + IL-2 + IL-25, Expt. 1” value (“% Inhib. of IL-5 production … Expt. 1” below) was 0%; the “% Inhib. of IL-5 production, TSLP treated human PBMC + IL-2 + IL-25, Expt. 2” value (shortened to “% Inhib. of IL-5 production … Expt. 2”) worked out at 43%; the “% Inhib. of IL-5 production, TSLP treated human PBMC + IL-2 + IL-25, Expt. 3” value (“% Inhib. of IL-5 production … Expt. 3” for short) was 0%.
For the molecule B2, the “% Inhib. of IL-5 production … Expt. 1” value turned out to be 0% and the “% Inhib. of IL-5 production … Expt. 3” value was determined as 11%.
Consider B3, for which the “% Inhib. of IL-5 production … Expt. 1” value is 28%; the “% Inhib. of IL-5 production … Expt. 2” value came to 72%; the “% Inhib. of IL-5 production … Expt. 3” value was found to be 45%.
The corresponding values for B4 are 0%, 13% and 3%.
In the case of B5, the “% Inhib. of IL-5 production … Expt. 1” value was determined as 0%; the “% Inhib. of IL-5 production … Expt. 2” value was 79%; the “% Inhib. of IL-5 production … Expt. 3” value turned out to be 0%.
Regarding B6, the “% Inhib. of IL-5 production … Expt. 1” value was found to be 0% and the “% Inhib. of IL-5 production … Expt. 3” value was found to be 0%.
B7: the “% Inhib. of IL-5 production … Expt. 1” value turned out to be 0%; the “% Inhib. of IL-5 production … Expt. 2” value is 6%; the “% Inhib. of IL-5 production … Expt. 3” value amounted to 0%.
In the case of B8, the “% Inhib. of IL-5 production … Expt. 1” value stood at 0%; the “% Inhib. of IL-5 production … Expt. 2” value worked out at 41%; the “% Inhib. of IL-5 production … Expt. 3” value was 9%.

A further experiment has as its target T1, IL-17RB.Fc (extracellular domain of …). Briefly: co-immunoprecipitation on Protein G beads, Western blot. (Immunoblotting shows a protein as a band on a membrane.)
B9: the binding result is “no binding (tested: 2 micrograms of each protein)”.

A further experiment addresses T2, IL-17RA.Fc (extracellular domain of human IL-17RA fused to the Fc region of human IgG) (human, UniProt Q96F46 33-320).
T2 construct: extracellular domain; also called IL-17RA Fe; not shown: Fc region of human IgG1
The description is as above.
As to B9, the binding result is recorded as “no binding (tested: 2 micrograms of each protein)”.
